Source: patent US20100291682, “SYSTEM FOR TRANSPOSING HYPERACTIVE RECOMBINANT DERIVATIVES OF MOS-1 TRANSPOSON” (published 2010)

Columns and labels:
Mos-1 transposase FQET = biological target: T1, Mos-1 transposase FQET (Drosophila mauritiana, UniProt Q7JQ07 SEQ:1-345, F53Y,Q91R,E137K,T216A); test: cell_activity; 3T46 transposition in E. coli T5 vs 3T3/WT; conditions: chain copies: 2
T1 sequence: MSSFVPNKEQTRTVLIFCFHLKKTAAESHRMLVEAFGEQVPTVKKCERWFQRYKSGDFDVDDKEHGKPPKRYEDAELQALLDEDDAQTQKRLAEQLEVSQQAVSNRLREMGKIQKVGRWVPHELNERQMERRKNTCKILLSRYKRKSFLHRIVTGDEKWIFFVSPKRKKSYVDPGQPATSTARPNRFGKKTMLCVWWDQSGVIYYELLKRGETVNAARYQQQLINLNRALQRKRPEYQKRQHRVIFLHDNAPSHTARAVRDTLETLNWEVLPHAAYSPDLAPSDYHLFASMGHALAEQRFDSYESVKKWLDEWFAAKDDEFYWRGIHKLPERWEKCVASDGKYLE
Protocol: (§1) Escherichia coli JM109 bacteria were co-transformed with the pBC 3T3 plasmid (comprising a transposition reporter 2 ITR 3′ mariner-like element and the chloramphenicol resistance gene) and with the inducible vector encoding for the transposase (pKK-Tnp or pMal-Tnp) comprising the ampicillin resistance gene. The bacteria selection was performed on ampicillin (100 μg/ml) and chloramphenicol in order to verify the presence of the two plasmids.
(§2) The JM109 bacteria containing both the pBC 3T3 plasmid and the pKK-Tnp (or pMalC2X-Tnp) plasmid were placed in culture for 1 hr at 37° C. in 250 μl of LB. This inoculum was then poured into 5 ml of LB supplemented with 1 mM IPTG. The culture was titrated on LB plates (100 μl of a 1/1000 dilution) and on LB-Tet plates (12.5 μg/ml) (250 μl of the non-diluted culture). The culture induced by IPTG was then cultured for 5 hours at 32° C. (optimal temperature of transposase) under stirring (250 rpm). The bacterial suspension was then titrated on LB plates (100 μl of a 1/250,000 dilution) and on LB-tet plates (100 μl of the undiluted bacterial suspension). The plates were placed at 37° C. overnight. The following day, the colonies were counted on LB and LB-Tet plates, and the transposition frequency (equal to the number of tetracycline bacteria over the number of bacterial per 1 ml of undiluted bacterial suspension) was calculated.
(§3) In order to evaluate the transposition efficiency of systems associating a hyperactive transposase and a pseudo-transposon that is also hyperactive, various combinations were tested in the transposition test in bacteria described in part I, paragraph I-B above.

Mos-1 transposase QY = biological target: T2, Mos-1 transposase QY (Drosophila mauritiana, UniProt Q7JQ07 SEQ:1-345, Q91R,Y237C); test: as above; conditions: chain copies: 2
T2 sequence: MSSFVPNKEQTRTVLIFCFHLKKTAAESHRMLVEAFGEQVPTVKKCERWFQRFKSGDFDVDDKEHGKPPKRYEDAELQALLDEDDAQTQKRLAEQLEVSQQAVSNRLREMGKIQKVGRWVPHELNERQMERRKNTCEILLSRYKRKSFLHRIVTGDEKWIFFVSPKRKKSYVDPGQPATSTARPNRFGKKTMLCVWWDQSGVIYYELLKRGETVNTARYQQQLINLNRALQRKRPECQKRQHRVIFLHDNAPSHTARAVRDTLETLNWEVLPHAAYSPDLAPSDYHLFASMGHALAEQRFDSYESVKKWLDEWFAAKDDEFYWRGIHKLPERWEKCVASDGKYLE
Protocol: as §1, §2, §3

B1: ITR46 (dsDNA)
DNA 1: TCAGGTGTACAAGTATGAGATGTCGTTT
DNA 2: AAACGACATCTCATACTTGTACACCTGA
Mos-1 transposase FQET
  activity: 12.3 fold
Mos-1 transposase QY
  activity: 1.7 fold
